Source: patent US20090028788A1 (WASHINGTON UNIVERSITY IN ST LOUIS, published 2009)
Bridges are numbered along the chain shown (N, C = ends). Primed or numbered codes have the meaning given here. Where no end group is shown, it is not given here. [ ]: non-standard residue; d: D form. The star is where a group is joined. Cypate = CC1(C)C(/C=C/C=C/C=C/C=C2/N(CCC(=O)*)c3ccc4ccccc4c3C2(C)C)=[N+](CCC(=O)O)c2ccc3ccccc3c21; DOTA = O=C(O)CN1CCN(CC(=O)O)CCN(CC(=O)*)CCN(CC(=O)O)CC1; DTPA = O=C(O)CN(CCN(CC(=O)O)CC(=O)O)CCN(CC(=O)O)CC(=O)*; Cypate′ = NIR carbocyanine dye; Ahx = NCCCCCC(=O)O; βAla = NCCC(=O)O

target: T1, purified human αvβ3 integrin protein (human, UniProt P06756 31-1048; P05106 27-788); test: competition with 125I-echistatin on purified human αvβ3 integrin, filter plate
T1 construct: Bought heterodimer; also called ABI; purified αvβ3 integrin
T1 sequence (P06756 31-1048, form in doubt, chain 1 of 2): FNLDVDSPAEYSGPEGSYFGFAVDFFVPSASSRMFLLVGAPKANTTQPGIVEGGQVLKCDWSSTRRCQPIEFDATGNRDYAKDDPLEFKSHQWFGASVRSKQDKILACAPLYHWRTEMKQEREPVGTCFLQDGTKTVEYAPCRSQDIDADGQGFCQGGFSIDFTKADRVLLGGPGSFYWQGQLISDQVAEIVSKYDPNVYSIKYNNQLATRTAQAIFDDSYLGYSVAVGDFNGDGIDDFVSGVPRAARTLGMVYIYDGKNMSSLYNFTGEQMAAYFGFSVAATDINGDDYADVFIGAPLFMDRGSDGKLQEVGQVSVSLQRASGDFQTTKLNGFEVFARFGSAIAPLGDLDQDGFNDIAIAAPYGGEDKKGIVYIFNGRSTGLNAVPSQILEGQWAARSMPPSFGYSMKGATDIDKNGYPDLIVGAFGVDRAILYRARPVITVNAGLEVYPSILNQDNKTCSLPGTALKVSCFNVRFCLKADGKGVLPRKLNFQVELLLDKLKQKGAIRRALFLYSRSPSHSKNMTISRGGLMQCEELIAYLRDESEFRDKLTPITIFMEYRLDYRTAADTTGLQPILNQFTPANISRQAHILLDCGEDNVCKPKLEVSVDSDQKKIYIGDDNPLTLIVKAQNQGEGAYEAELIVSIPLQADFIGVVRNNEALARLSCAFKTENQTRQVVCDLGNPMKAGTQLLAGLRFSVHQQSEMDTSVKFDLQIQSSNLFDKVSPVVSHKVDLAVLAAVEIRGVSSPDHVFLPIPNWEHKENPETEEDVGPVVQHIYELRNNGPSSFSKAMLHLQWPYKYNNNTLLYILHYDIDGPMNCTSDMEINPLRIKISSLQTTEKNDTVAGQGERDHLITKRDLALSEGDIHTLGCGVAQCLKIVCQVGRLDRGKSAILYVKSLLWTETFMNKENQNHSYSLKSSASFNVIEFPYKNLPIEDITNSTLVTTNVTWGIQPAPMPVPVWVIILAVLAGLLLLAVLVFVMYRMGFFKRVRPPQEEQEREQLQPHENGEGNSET
T1 sequence (P05106 27-788, form in doubt, chain 2 of 2): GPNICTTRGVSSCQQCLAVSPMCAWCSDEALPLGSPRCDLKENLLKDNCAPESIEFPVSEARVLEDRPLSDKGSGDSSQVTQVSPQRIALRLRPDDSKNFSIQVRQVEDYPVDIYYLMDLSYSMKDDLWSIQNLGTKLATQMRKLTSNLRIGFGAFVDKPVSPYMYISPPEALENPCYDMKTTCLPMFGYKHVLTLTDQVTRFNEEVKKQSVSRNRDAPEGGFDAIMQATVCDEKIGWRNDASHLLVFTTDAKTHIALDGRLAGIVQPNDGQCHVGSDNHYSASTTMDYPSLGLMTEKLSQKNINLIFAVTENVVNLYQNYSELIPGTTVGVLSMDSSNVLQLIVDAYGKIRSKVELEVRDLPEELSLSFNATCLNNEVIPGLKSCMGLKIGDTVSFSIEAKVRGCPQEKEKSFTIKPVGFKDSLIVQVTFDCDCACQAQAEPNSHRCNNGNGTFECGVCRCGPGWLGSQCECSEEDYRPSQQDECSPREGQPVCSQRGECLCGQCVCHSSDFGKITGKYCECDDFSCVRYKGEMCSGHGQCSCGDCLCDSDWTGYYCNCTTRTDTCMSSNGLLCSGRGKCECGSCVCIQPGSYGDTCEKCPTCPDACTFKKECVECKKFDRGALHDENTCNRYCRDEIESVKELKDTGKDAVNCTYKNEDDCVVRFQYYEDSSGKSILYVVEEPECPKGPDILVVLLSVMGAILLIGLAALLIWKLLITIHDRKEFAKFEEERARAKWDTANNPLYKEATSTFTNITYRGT
Protocol: (§1) The binding affinities were measured based on the competitive binding between purified αᵥβ₃ integrin (ABI) and peptide ligands.
(§2) Receptor binding assays were performed by using purified human αᵥβ₃ integrin protein from Chemicon International, Inc. (Temecula, Calif.). Assays were carried out using the Millipore Duropore membrane 96-well plates and the Millipore MultiScreen system (Bedford, Mass.). […] The concentration range of ligand was between 0.01 μM and 100 μM. The mixtures were incubated for 2 h at room temperature, the ABI was then filtered by centrifugation at 1500 g and washed three times with 0.20 mL of ice-cold binding buffer. The filters containing radioactivity bound ABI were removed using a punch apparatus and counted using a Packard Cobra II Auto-gamma counter (Meriden, Conn.). […] The 50% inhibitory concentrations (IC₅₀) were calculated by nonlinear regression analysis by use of the GraphPad Prism 4 computer fitting program (GraphPad Software, Inc., San Diego, Calif.).

IC50 [µM]	Binder
0.275	CRGDSC-NH2 (disulfide 1-6; not fully specified (N-terminus); printed as Cypate-[Cyclo(Cys-Arg-Gly-Asp-Ser-Cys)-NH2]1-(D-Glucosamine); also: D-glucosamine attached to cypate) [Cypate-[Cyclo(Cys-Arg-Gly-Asp-Ser-Cys)-NH2]1-(D-Glucosamine)]
0.584	VRGDXCYXKTCT (HELM PEPTIDE1{[O=C(O)CN(CCN(CC(=O)O)CC(=O)O)CCN(CC(=O)O)CC(=O)[*:2]].V.R.G.D.[dF].C.Y.[dW].K.T.C.T.[am]}$PEPTIDE1,PEPTIDE1,7:R3-12:R3$$$V2.0; SMILES CC(C)[C@H](NC(=O)CN(CCN(CCN(CC(=O)O)CC(=O)O)CC(=O)O)CC(=O)O)C(=O)N[C@@H](CCCNC(=N)N)C(=O)NCC(=O)N[C@@H](CC(=O)O)C(=O)N[C@H](Cc1ccccc1)C(=O)N[C@H]1CSSC[C@@H](C(=O)N[C@H](C(N)=O)[C@@H](C)O)NC(=O)[C@H]([C@@H](C)O)NC(=O)[C@H](CCCCN)NC(=O)[C@@H](Cc2c[nH]c3ccccc23)NC(=O)[C@H](Cc2ccc(O)cc2)NC1=O) [DTPA-Val-Arg-Gly-Asp-DPhe-Cyclo(Cys-Tyr-DTrp-Lys-Thr-Cys)-Thr-NH2]
325	{Cypate′}-VRGD[dF]CY[dW]KTCT-OH (disulfide 6-11) [Cypate-Val-Arg-Gly-Asp-DPhe-Cyclo(Cys-Tyr-DTrp-Lys-Thr-Cys)-Thr-OH]
350	{DOTA}-GRDSPK-OH (also called DOTA-GRD) [DOTA-Gly-Arg-Asp-Ser-Pro-Lys-OH]
0.694	{DOTA}-RGDSPK-OH [DOTA-Arg-Gly-Asp-Ser-Pro-Lys-OH]
0.712	{DTPA}-HDC(Et)RGDC(Et)FK-OH (SMILES CCSC[C@H](NC(=O)[C@H](CC(=O)O)NC(=O)CNC(=O)[C@H](CCCNC(=N)N)NC(=O)[C@H](CSCC)NC(=O)[C@H](CC(=O)O)NC(=O)[C@H](Cc1c[nH]cn1)NC(=O)CN(CCN(CCN(CC(=O)O)CC(=O)O)CC(=O)O)CC(=O)O)C(=O)N[C@@H](Cc1ccccc1)C(=O)N[C@@H](CCCCN)C(=O)O) [DTPA-His-Asp-Cys(Et)-Arg-Gly-Asp-Cys(Et)-Phe-Lys-OH]
0.000977	{Cypate′}-[βAla]CRGDC[dF]V-NH2 (disulfide 2-6) [Cypate-BAla-Cyclo(Cys-Arg-Gly-Asp-Cys)-DPhe-Val-NH2]
2670	{Cypate(3)}-GRDSPK-OH [Cypate(3)-Gly-Arg-Asp-Ser-Pro-Lys-OH]
0.353	{DTPA}-GRGDSPK-OH [DTPA-Gly-Arg-Gly-Asp-Ser-Pro-Lys-OH]
1.94	RGD[dF]D[Ahx]K-OH (lactam N-5; also: cyclo Arg1-Asp5: which Asp5 carboxyl (side chain or α) closes ring not given here) [Cyclo(Arg-Gly-Asp-DPhe-Asp)-EAhx-Lys-OH]
1.11	{DTPA}-[dF]CY[dW]KTCTVRGD-NH2 (disulfide 2-7) [DTPA-DPhe-Cyclo(Cys-Tyr-DTrp-Lys-Thr-Cys)-Thr-Val-Arg-Gly-Asp-NH2]
0.722	{DOTA}-RGDSPK(Cypate)-NH2 (SMILES CC1(C)C(/C=C/C=C/C=C/C=C2/N(CCC(=O)NCCCC[C@H](NC(=O)[C@@H]3CCCN3C(=O)[C@H](CO)NC(=O)[C@H](CC(=O)O)NC(=O)CNC(=O)[C@H](CCCNC(=N)N)NC(=O)CN3CCN(CC(=O)O)CCN(CC(=O)O)CCN(CC(=O)O)CC3)C(N)=O)c3ccc4ccccc4c3C2(C)C)=[N+](CCC(=O)O)c2ccc3ccccc3c21) [DOTA-Arg-Gly-Asp-Ser-Pro-Lys(Cypate)-NH2]
4.42	{Cypate′}-[dF]CY[dW]KTCTVRGD-NH2 (disulfide 2-7) [Cypate-DPhe-Cyclo(Cys-Tyr-DTrp-Lys-Thr-Cys)-Thr-Val-Arg-Gly-Asp-NH2]
0.329	H-[βAla]DCRGDC(Et)FV-OH (SMILES CCSC[C@H](NC(=O)[C@H](CC(=O)O)NC(=O)CNC(=O)[C@H](CCCNC(=N)N)NC(=O)[C@H](CS)NC(=O)[C@H](CC(=O)O)NC(=O)CCN)C(=O)N[C@@H](Cc1ccccc1)C(=O)N[C@H](C(=O)O)C(C)C) [H-B-Ala-Asp-Cys-Arg-Gly-Asp-Cys(Et)-Phe-Val-OH]
0.411	H-HDRGDCFK-OH [H-His-Asp-Arg-Gly-Asp-Cys-Phe-Lys-OH]
3.02	{Cypate′}-KRGD[dF][Ahx]-NH2 [Cypate-Lys-Arg-Gly-Asp-DPhe-EAhx-NH2]
1.89	XVKRGD (HELM PEPTIDE1{[dF].V.K.R.G.D}$PEPTIDE1,PEPTIDE1,1:R1-6:R2$$$V2.0; SMILES CC(C)[C@@H]1NC(=O)[C@@H](Cc2ccccc2)NC(=O)[C@H](CC(=O)O)NC(=O)CNC(=O)[C@H](CCCNC(=N)N)NC(=O)[C@H](CCCCN)NC1=O) [Cyclo(DPhe-Val-Lys-Arg-Gly-Asp)-OH]
0.849	{DTPA}-GRDSPK-OH [DTPA-Gly-Arg-Asp-Ser-Pro-Lys-OH]
1	H-RGDSPK(Cypate)-NH2 [H-Arg-Gly-Asp-Ser-Pro-Lys(Cypate)-NH2]
0.945	XCYXKTCTVRGDX (HELM PEPTIDE1{[O=C(O)CN(CCN(CC(=O)O)CC(=O)O)CCN(CC(=O)O)CC(=O)[*:2]].[dF].C.Y.[dW].K.T.C.T.V.R.G.D.[dF].[am]}$PEPTIDE1,PEPTIDE1,3:R3-8:R3$$$V2.0; SMILES CC(C)[C@H](NC(=O)[C@@H](NC(=O)[C@@H]1CSSC[C@H](NC(=O)[C@@H](Cc2ccccc2)NC(=O)CN(CCN(CCN(CC(=O)O)CC(=O)O)CC(=O)O)CC(=O)O)C(=O)N[C@@H](Cc2ccc(O)cc2)C(=O)N[C@H](Cc2c[nH]c3ccccc23)C(=O)N[C@@H](CCCCN)C(=O)N[C@@H]([C@@H](C)O)C(=O)N1)[C@@H](C)O)C(=O)N[C@@H](CCCNC(=N)N)C(=O)NCC(=O)N[C@@H](CC(=O)O)C(=O)N[C@H](Cc1ccccc1)C(N)=O) [DTPA-DPhe-Cyclo(Cys-Tyr-DTrp-Lys-Thr-Cys)-Thr-Val-Arg-Gly-Asp-DPhe-NH2]
0.722	XCYXKTCTVRGD (HELM PEPTIDE1{[dF].C.Y.[dW].K.T.C.T.V.R.G.D.[am]}$PEPTIDE1,PEPTIDE1,2:R3-7:R3$$$V2.0; SMILES CC(C)[C@H](NC(=O)[C@@H](NC(=O)[C@@H]1CSSC[C@H](NC(=O)[C@H](N)Cc2ccccc2)C(=O)N[C@@H](Cc2ccc(O)cc2)C(=O)N[C@H](Cc2c[nH]c3ccccc23)C(=O)N[C@@H](CCCCN)C(=O)N[C@@H]([C@@H](C)O)C(=O)N1)[C@@H](C)O)C(=O)N[C@@H](CCCNC(=N)N)C(=O)NCC(=O)N[C@@H](CC(=O)O)C(N)=O) [H-DPhe-Cyclo(Cys-Tyr-DTrp-Lys-Thr-Cys)-Thr-Val-Arg-Gly-Asp-NH2]
1.68	VRGDXCYXKTCT (HELM PEPTIDE1{V.R.G.D.[dF].C.Y.[dW].K.T.C.T.[am]}$PEPTIDE1,PEPTIDE1,6:R3-11:R3$$$V2.0; SMILES CC(C)[C@H](N)C(=O)N[C@@H](CCCNC(=N)N)C(=O)NCC(=O)N[C@@H](CC(=O)O)C(=O)N[C@H](Cc1ccccc1)C(=O)N[C@H]1CSSC[C@@H](C(=O)N[C@H](C(N)=O)[C@@H](C)O)NC(=O)[C@H]([C@@H](C)O)NC(=O)[C@H](CCCCN)NC(=O)[C@@H](Cc2c[nH]c3ccccc23)NC(=O)[C@H](Cc2ccc(O)cc2)NC1=O) [H-Val-Arg-Gly-Asp-DPhe-Cyclo(Cys-Tyr-DTrp-Lys-Thr-Cys)-Thr-NH2]
1.74	RGD[dF]DK-NH2 (lactam N-5; also: cyclo Arg1-Asp5: which Asp5 carboxyl (side chain or α) closes ring not given here) [Cyclo(Arg-Gly-Asp-DPhe-Asp)-Lys-NH2]
0.357	XCYXKTCTVRGDX (HELM PEPTIDE1{[dF].C.Y.[dW].K.T.C.T.V.R.G.D.[dF].[am]}$PEPTIDE1,PEPTIDE1,2:R3-7:R3$$$V2.0; SMILES CC(C)[C@H](NC(=O)[C@@H](NC(=O)[C@@H]1CSSC[C@H](NC(=O)[C@H](N)Cc2ccccc2)C(=O)N[C@@H](Cc2ccc(O)cc2)C(=O)N[C@H](Cc2c[nH]c3ccccc23)C(=O)N[C@@H](CCCCN)C(=O)N[C@@H]([C@@H](C)O)C(=O)N1)[C@@H](C)O)C(=O)N[C@@H](CCCNC(=N)N)C(=O)NCC(=O)N[C@@H](CC(=O)O)C(=O)N[C@H](Cc1ccccc1)C(N)=O) [H-DPhe-Cyclo(Cys-Tyr-DTrp-Lys-Thr-Cys)-Thr-Val-Arg-Gly-Asp-DPhe-NH2]
1.94	Cypate-RGDS-NH2 (also: cypate also carries one D-glucosamine) [Cypate(Arg-Gly-Asp-Ser-NH2)1-(D-Glucosamine)]
0.0656	{Cypate′}-[βAla]RGD[Ahx]RGD[Ahx]RGDSPK-OH [Cypate-BAla-Arg-Gly-Asp-EAhx-Arg-Gly-Asp-EAhx-Arg-Gly-Asp-Ser-Pro-Lys-OH]
266	{Cypate(2)}-GRDSPK-OH [Cypate(2)-Gly-Arg-Asp-Ser-Pro-Lys-OH]

target: T1, purified human αvβ3 integrin protein; test: as above; remark: another data set of the same source
Protocol: as §1, §2

IC50 [nM]	Binder
1140	CRGDSC (HELM PEPTIDE1{[CC1(C)C(/C=C/C=C/C=C/C=C2/N(CCC(=O)[*:2])c3ccc4ccccc4c3C2(C)C)=[N+](CCC(=O)O)c2ccc3ccccc3c21].C.R.G.D.S.C.[am]}$PEPTIDE1,PEPTIDE1,2:R3-7:R3$$$V2.0; SMILES CC1(C)C(/C=C/C=C/C=C/C=C2/N(CCC(=O)N[C@H]3CSSC[C@@H](C(N)=O)NC(=O)[C@H](CO)NC(=O)[C@H](CC(=O)O)NC(=O)CNC(=O)[C@H](CCCNC(=N)N)NC3=O)c3ccc4ccccc4c3C2(C)C)=[N+](CCC(=O)O)c2ccc3ccccc3c21, also called Cypate-[Cyclo-(Cys-Arg-Gly-Asp-Ser-Cys)]1) [Cypate-cyclo(CRGDSC)-NH2]
4600	CRGDC (HELM PEPTIDE1{[CC1(C)C(/C=C/C=C/C=C/C=C2/N(CCC(=O)[*:2])c3ccc4ccccc4c3C2(C)C)=[N+](CCC(=O)O)c2ccc3ccccc3c21].C.R.G.D.C.[am]}$PEPTIDE1,PEPTIDE1,2:R3-6:R3$$$V2.0; SMILES CC1(C)C(/C=C/C=C/C=C/C=C2/N(CCC(=O)N[C@H]3CSSC[C@@H](C(N)=O)NC(=O)[C@H](CC(=O)O)NC(=O)CNC(=O)[C@H](CCCNC(=N)N)NC3=O)c3ccc4ccccc4c3C2(C)C)=[N+](CCC(=O)O)c2ccc3ccccc3c21, also called Cypate-cyclo(CRGDC)-NH2) [Cypate-Cyclo(Cys-Arg-Gly-Asp-Cys)-NH2]
